In this assay the target is T1, D-alanyl carrier protein ligase DltA from Staphylococcus aureus Mu50 (S. aureus) (UniProt P68876).
T1 sequence: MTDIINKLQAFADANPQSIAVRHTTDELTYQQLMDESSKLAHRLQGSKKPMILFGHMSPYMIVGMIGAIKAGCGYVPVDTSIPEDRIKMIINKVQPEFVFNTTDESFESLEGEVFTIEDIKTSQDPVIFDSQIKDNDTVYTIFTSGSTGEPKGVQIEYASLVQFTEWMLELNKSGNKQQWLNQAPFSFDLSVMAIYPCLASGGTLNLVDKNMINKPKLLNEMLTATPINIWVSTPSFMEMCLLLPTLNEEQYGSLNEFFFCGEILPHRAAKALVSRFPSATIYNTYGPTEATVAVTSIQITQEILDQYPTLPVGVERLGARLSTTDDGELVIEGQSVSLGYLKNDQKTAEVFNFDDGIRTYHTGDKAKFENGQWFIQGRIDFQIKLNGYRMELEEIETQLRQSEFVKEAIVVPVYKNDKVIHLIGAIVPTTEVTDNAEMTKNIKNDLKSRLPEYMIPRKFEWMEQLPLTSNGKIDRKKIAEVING

B1: wild-type S. aureus DltC, Ppant-modified (natural protein)
chain: MEFREQVLNLLAEVAENDIVKENPDVEIFEEGIIDSFQTVGLLLEIQNKLDIEVSIMDFDRDEWATPNKIVEALEELR
modifications: 4'-phosphopantetheinyl (Ppant) group at Ser36
B1: the adenylation activity of SaDltA (5 µM; initial rate, pyrophosphate-detection assay, 5 mM D-alanine) in the presence of 300 µM wild-type SaDltC, against SaDltA alone stood at 7.2 fold.

Source of the values: paper PMC8972799.
